Literature values in PMC4134939.

Target: ubiquitin (Homo sapiens) (UniProt P0CG47)

DNA polymerase iota UBM1, sequence (Q9UNA4 513-557): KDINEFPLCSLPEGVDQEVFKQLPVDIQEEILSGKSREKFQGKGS

- Kd: 130 µM
Substance: DNA polymerase iota UBM1 (from UniProt Q9UNA4)
